According to article PMC2172684 (The Journal of Cell Biology, 2003):
Where two headings read alike, the source gives them in different places.

B1: GST-tagged Nup153 (895–1475) (domain or fragment, UniProt P49790 895-1475, looked up)
chain: SNSAASSSFKFGVSSSSSGPSQTLTSTGNFKFGDQGGFKIGVSSDSGSINPMSEGFKFSKPIGDFKFGVSSESKPEEVKKDSKNDNFKFGLSSGLSNPVSLTPFQFGVSNLGQEEKKEELPKSSSAGFSFGTGVINSTPAPANTIVTSENKSSFNLGTIETKSASVAPFTCKTSEAKKEEMPATKGGFSFGNVEPASLPSASVFVLGRTEEKQQEPVTSTSLVFGKKADNEEPKCQPVFSFGNSEQTKDENSSKSTFSFSMTKPSEKESEQPAKATFAFGAQTSTTADQGAAKPVFSFLNNSSSSSSTPATSAGGGIFGSSTSSSNPPVATFVFGQSSNPVSSSAFGNTAESSTSQSLLFSQDSKLATTSSTGTAVTPFVFGPGASSNNTTTSGFGFGATTTSSSAGSSFVFGTGPSAPSASPAFGANQTPTFGQSQGASQPNPPGFGSISSSTALFPTGSQPAPPTFGTVSSSSQPPVFGQQPSQSAFGSGTTPNSSSAFQFGSSTTNFNFTNNSPSGVFTFGANSSTPAASAQPSGSGGFPFNQSPAAFTVGSNGKNVFSSSGTSFSGRKIKTAVRRRK

Assays:
Assay in all cases: ELISA
importin β I263R = importin β I263R (human, UniProt Q14974 1-876, I263R)
importin β Y255A = importin β Y255A (human, UniProt Q14974 1-876, Y255A)
importin β F217A/Y255A = importin β F217A/Y255A (human, UniProt Q14974 1-876, F217A | Y255A)
importin β F217A = importin β F217A (human, UniProt Q14974 1-876, F217A)
importin β I178D/Y255A = importin β I178D/Y255A (human, UniProt Q14974 1-876, I178D | Y255A)
importin β I178A/E214A = importin β I178A/E214A (human, UniProt Q14974 1-876, I178A | E214A)
importin β E214A = importin β E214A (human, UniProt Q14974 1-876, E214A)
importin β I178D = importin β I178D (human, UniProt Q14974 1-876, I178D)
[1] = molecular target: T1, importin β I178A/F217A/Y255A/I263R (m-N) (human, UniProt Q14974 1-876, I178A | F217A | Y255A | I263R)
importin β I178A = importin β I178A (human, UniProt Q14974 1-876, I178A)
wild-type importin β [2] = molecular target: T2, wild-type importin β (human, UniProt Q14974 1-876)
[3] = molecular target: importin β L612D/F688A (m-C) (human, UniProt Q14974 1-876, L612D | F688A)
[4] = molecular target: T1, importin β I178A/F217A/Y255A/I263R (m-N); remark: listed apart in the source
wild-type importin β [5] = molecular target: T2, wild-type importin β; remark: listed apart in the source
GST–RanGTP = GST–RanGTP (UniProt P62826 1-216)
[6] = molecular target: B1

Question: B1 was tested. Which Kd (importin β I263R) did it give?
Answer: 2.5 ± 0.3 nM

Question: What about the Kd (importin β Y255A) of the same binder?
Answer: 3.5 ± 0.3 nM

Question: And the Kd (importin β F217A/Y255A)?
Answer: 32.4 ± 5.3 nM

Question: What about the Kd (importin β F217A) of the same binder?
Answer: 2.1 ± 0.2 nM

Question: What about the Kd (importin β I178D/Y255A) of the same binder?
Answer: 68.3 ± 9 nM

Question: What about the Kd (importin β I178A/E214A) of the same binder?
Answer: 27 ± 4.1 nM

Question: What about the Kd (importin β E214A) of the same binder?
Answer: 1.8 ± 0.1 nM

Question: What about the Kd (importin β I178D) of the same binder?
Answer: 40.1 ± 9.1 nM

Question: And the Kd [1]?
Answer: 99 ± 15.2 nM

Question: And the Kd (importin β I178A)?
Answer: 1.1 ± 0.1 nM

Question: And the Kd (wild-type importin β [2])?
Answer: 1.1 ± 0.1 nM

Question: And the Kd [3]?
Answer: 1.2 ± 0.1 nM

Question: And the Kd [4]?
Answer: 91.3 ± 11.8 nM

Question: What about the Kd (wild-type importin β [5]) of the same binder?
Answer: 1 ± 0.1 nM

B2: importin β m-N/m-C (natural protein)
chain: MELITILEKTVSPDRLELEAAQKFLERAAVENLPTFLVELSRVLANPGNSQVARVAAGLQIKNSLTSKDPDIKAQYQQRWLAIDANARREVKNYVLQTLGTETYRPSSASQCVAGIACAEIPVNQWPELIPQLVANVTNPNSTEHMKESTLEAIGYICQDIDPEQLQDKSNEILTAIAQGMRKEEPSNNVKLAATNALLNSLEFTKANFDKESERHAIMQVVCEATQCPDTRVRVAALQNLVKIMSLYYQYMETAMGPALFARTIEAMKSDIDEVALQGIEFWSNVCDEEMDLAIEASEAAEQGRPPEHTSKFYAKGALQYLVPILTQTLTKQDENDDDDDWNPCKAAGVCLMLLATCCEDDIVPHVLPFIKEHIKNPDWRYRDAAVMAFGCILEGPEPSQLKPLVIQAMPTLIELMKDPSVVVRDTAAWTVGRICELLPEAAINDVYLAPLLQCLIEGLSAEPRVASNVCWAFSSLAEAAYEAADVADDQEEPATYCLSSSFELIVQKLLETTDRPDGHQNNLRSSAYESLMEIVKNSAKDCYPAVQKTTLVIMERLQQVLQMESHIQSTSDRIQFNDLQSLLCATLQNVLRKVQHQDALQISDVVMASLDRMFQSTAGSGGVQEDALMAVSTLVEVLGGEFLKYMEAFKPFLGIGLKNYAEYQVCLAAVGLVGDLCRALQSNIIPACDEVMQLLLENLGNENVHRSVKPQILSVFGDIALAIGGEFKKYLEVVLNTLQQASQAQVDKSDYDMVDYLNELRESCLEAYTGIVQGLKGDQENVHPDVMLVQPRVEFILSFIDHIAGDEDHTDGVVACAAGLIGDLCTAFGKDVLKLVEARPMIHELLTEGRRSKTNKAKTLATWATKELRKLKNQA
Question: B2 was tested. Which Kd (GST–RanGTP) did it give?
Answer: 4.4 nM

B3: importin β (304–876) F688A (domain or fragment, human, UniProt Q14974 304-876, looked up)
chain: GRPPEHTSKFYAKGALQYLVPILTQTLTKQDENDDDDDWNPCKAAGVCLMLLATCCEDDIVPHVLPFIKEHIKNPDWRYRDAAVMAFGCILEGPEPSQLKPLVIQAMPTLIELMKDPSVVVRDTAAWTVGRICELLPEAAINDVYLAPLLQCLIEGLSAEPRVASNVCWAFSSLAEAAYEAADVADDQEEPATYCLSSSFELIVQKLLETTDRPDGHQNNLRSSAYESLMEIVKNSAKDCYPAVQKTTLVIMERLQQVLQMESHIQSTSDRIQFNDLQSLLCATLQNVLRKVQHQDALQISDVVMASLLRMFQSTAGSGGVQEDALMAVSTLVEVLGGEFLKYMEAFKPFLGIGLKNYAEYQVCLAAVGLVGDLCRALQSNIIPACDEVMQLLLENLGNENVHRSVKPQILSVFGDIALAIGGEFKKYLEVVLNTLQQASQAQVDKSDYDMVDYLNELRESCLEAYTGIVQGLKGDQENVHPDVMLVQPRVEFILSFIDHIAGDEDHTDGVVACAAGLIGDLCTAFGKDVLKLVEARPMIHELLTEGRRSKTNKAKTLATWATKELRKLKNQA
Question: For B3, which “fold decrease in affinity against importin β (304–876)” value [6] is on record?
Answer: ~2 fold
